From US20120264231A1, “ASSAY FOR ORAI CALCIUM CHANNEL REGULATORS” (IMMUNE DISEASE INSTITUTE, INC., priority 2009, published 2012)

Molecular target: ORAI1 (E106Q) (Homo sapiens, UniProt Q96D31, E106Q)
Assay: Cameleon D3 cpV intravesicular Ca^2+ assay, vesicles with ORAI1 (E106Q)
Format: biochemical
Set-up: the ORAI functional fragment is ORAI1 (65-301), ORAI1 (65-87), or full length ORAI1; made in house; host or cells: S. cerevisiae NY17 (sec6-4), isolated secretory vesicles
Settings: vesicles containing ORAI1 (E106Q)
Excerpt: Confirmation that Ca^2+ release from the vesicles was due to gating of the ORAI 1 channel was sought. […] It was concluded that the in vitro assay reflects STIM 1-dependent gating of ORAI1 and Ca^2+ flux through the ORAI1 channel pore.
The yeast expression vector pBEVY-GU60 allows for simultaneous expression of two transgenes by means of the bidirectional GAL1-10 promoter. The FRET-based calcium sensors D3 cpV and D4 cpV53 were fused at the N-terminus with the S. cerevisiae α-mating factor secretion signal (Bitter, G. A., et al., Proc Natl Acad Sci USA 81, 5330-5334 (1984)), which directs proteins into the secretory pathway, and introduced into pBEVY-GU in the following way. Vector pPIC9 (Invitrogen) served as template for PCR amplification of the α-mating factor secretion signal (5′ primer: […] (SEQ ID NO: 2); 3′ primer: […] (SEQ ID NO: 3)), introducing an EcoRI site at the 5′ end, and a sequence complementary to that encoding the N-terminus of the calcium sensor at the 3′ end. DNA encoding the N-terminal portion of the calcium sensor D3 cpV, comprising CFP, was amplified by PCR (5′ primer: […] (SEQ ID NO: 4); 3′ primer: […] (SEQ ID NO: 5)), introducing an SphI site followed by a stop codon and a NotI site at the 3′ end of the resulting DNA fragment. […]

ORAI1 (E106Q), sequence (Q96D31 2-301 E106Q): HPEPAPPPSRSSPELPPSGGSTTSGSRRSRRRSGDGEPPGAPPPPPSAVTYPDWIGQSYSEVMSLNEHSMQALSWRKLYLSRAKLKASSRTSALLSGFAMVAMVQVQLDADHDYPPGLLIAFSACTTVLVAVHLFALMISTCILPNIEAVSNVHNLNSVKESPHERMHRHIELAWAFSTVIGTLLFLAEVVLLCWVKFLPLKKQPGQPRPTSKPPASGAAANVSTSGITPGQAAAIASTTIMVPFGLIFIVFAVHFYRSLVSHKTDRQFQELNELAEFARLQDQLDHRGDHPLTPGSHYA

In the case of “STIM1^CT: cytoplasmic region of STIM1, mouse residues 233-685, His-tagged recombinant protein expressed in E coli”, the “Ca^2+ release from vesicles” value is reported as “did not elicit Ca^2+ release”.
